Measured values taken from patent publication US20180030116A1 (Amgen, published 2018).
Changes are numbered by the printed parent chain. Names may count otherwise. Where two headings read alike, the source gives them in different places.

T1: MMP2 (human, UniProt P08253 30-660)
T1 sequence (looked up): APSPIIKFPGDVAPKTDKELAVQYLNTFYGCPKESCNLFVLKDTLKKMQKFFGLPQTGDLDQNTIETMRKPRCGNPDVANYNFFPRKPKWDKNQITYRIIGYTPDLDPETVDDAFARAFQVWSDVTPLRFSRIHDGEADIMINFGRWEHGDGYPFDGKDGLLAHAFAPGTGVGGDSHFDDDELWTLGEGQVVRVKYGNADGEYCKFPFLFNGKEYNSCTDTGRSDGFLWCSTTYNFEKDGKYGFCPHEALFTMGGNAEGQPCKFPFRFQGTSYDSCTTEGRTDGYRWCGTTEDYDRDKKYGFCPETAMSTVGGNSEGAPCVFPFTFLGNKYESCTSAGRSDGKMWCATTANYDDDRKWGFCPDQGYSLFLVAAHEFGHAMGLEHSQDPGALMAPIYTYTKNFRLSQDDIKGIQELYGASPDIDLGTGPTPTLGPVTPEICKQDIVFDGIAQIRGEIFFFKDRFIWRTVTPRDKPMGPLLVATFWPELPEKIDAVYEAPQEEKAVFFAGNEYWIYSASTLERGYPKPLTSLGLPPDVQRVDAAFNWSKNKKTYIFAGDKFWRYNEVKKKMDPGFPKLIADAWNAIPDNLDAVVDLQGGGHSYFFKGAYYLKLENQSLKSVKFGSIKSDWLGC

B1: TIMP-3 [K45N, V47T, P56N, G58T, K94N, E96T, R138T] (SEQ ID NO:4) (protein)
chain: CTCSPSHPQDAFCNSDIVIRANVTGKKLVKEGNFTTLVYTIKQMKMYRGFTKMPHVQYIHTEASESLCGLNLTVNKYQYLLTGRVYDGKMYTGLCNFVERWDQLTLSQRKGLNYTYHLGCNCKIKSCYYLPCFVTSKNECLWTDMLSNFGYPGYQSKHYACIRQKGGYCSWYRGWAPPDKSIINATDP
modifications: 4 engineered N-linked glycosylation sites (# EG, Table 2)
B2: TIMP-3 [K45N, V47T, K94N, E96T, D110N, K112T, G173T] (SEQ ID NO:10) (protein)
chain: B1 chain with N33P, T35G, D87N, K89T, T115R, G150T
modifications: 4 engineered N-linked glycosylation sites (# EG, Table 2)
B3: TIMP-3 [K45S, F57N, K94N, E96T, D110N, K112T, R138T] (SEQ ID NO:12) (protein)
chain: B1 chain with N22S, T24V, N33P, F34N, T35G, D87N, K89T
modifications: 4 engineered N-linked glycosylation sites (# EG, Table 2)
B4: TIMP-3 [K50N, V52T P56N, G58T, K94N, E96T, D110N, K112T, R138T] (SEQ ID NO:14) (protein)
chain: B1 chain with N22K, T24V, K27N, V29T, D87N, K89T
modifications: 5 engineered N-linked glycosylation sites (# EG, Table 2)
B5: TIMP-3 [K50N, V52T, K94N, E96T, D110N, K112T, R138T] (SEQ ID NO:16) (protein)
chain: B1 chain with N22K, T24V, K27N, V29T, N33P, T35G, D87N, K89T
modifications: 4 engineered N-linked glycosylation sites (# EG, Table 2)
B6: TIMP-3 [K50N, V52T, K94N, E96T, D110N, K112T, R138T, G173T] (SEQ ID NO:17) (protein)
chain: B1 chain with N22K, T24V, K27N, V29T, N33P, T35G, D87N, K89T, G150T
modifications: 5 engineered N-linked glycosylation sites (# EG, Table 2)
B7: TIMP-3 [P56N, G58T, H78N, Q80T, K94N, E96T, R138T] (SEQ ID NO:20) (protein)
chain: B1 chain with N22K, T24V, H55N, Q57T
modifications: 4 engineered N-linked glycosylation sites (# EG, Table 2)
B8: TIMP-3 [P56N, G58T K94N, E96T, Q126N, R138T] (SEQ ID NO:21) (protein)
chain: B1 chain with N22K, T24V, Q103N
modifications: 4 engineered N-linked glycosylation sites (# EG, Table 2)
B9: TIMP-3 [P56N, G58T, K94N, E96T, D110N, K112T, R138T] (SEQ ID NO:22) (protein)
chain: B1 chain with N22K, T24V, D87N, K89T
modifications: 4 engineered N-linked glycosylation sites (# EG, Table 2)
B10: TIMP-3 [K45N, V47T, F57N, K94N, E96T, D110N, K112T] (SEQ ID NO:6) (protein)
chain: B1 chain with N33P, F34N, T35G, D87N, K89T, T115R
modifications: 4 engineered N-linked glycosylation sites (# EG, Table 2)
B11: TIMP-3 [H78N, Q80T, K94N, E96T, D110N, K112T, R138T] (SEQ ID NO:26) fused to Fc (Fc fusion, not shown: a dimerising Fc or GST)
chain: B1 chain with N22K, T24V, N33P, T35G, H55N, Q57T, D87N, K89T
B12: N-TIMP3 fused to Fc (Fc fusion, part only; not given: Fc carrier, unspecified, part only)
chain, part: CTCSPSHPQDAFCNSDIVIRAKVVGKKLVKEGPFGTLVYTIKQMKMYRGFTKMPHVQYIHTEASESLCGLKLEVNKYQYLLTGRVYDGKMYTGLCNFVERWDQLTLSQRKGLNYRYHLGCN
B13: TIMP-3 [K45N, V47T, F57N, K94N, E96T, R138T] (SEQ ID NO:7) (protein)
chain: B1 chain with N33P, F34N, T35G
modifications: 4 engineered N-linked glycosylation sites (# EG, Table 2)
B14: TIMP-3 [H78N, Q80T, K94N, E96T, D110N, K112T, R138T] (SEQ ID NO:26) (other)
chain: B1 chain with N22K, T24V, N33P, T35G, H55N, Q57T, D87N, K89T
modifications: 4 engineered N-linked glycosylation sites (# EG, Table 2)
B15: N-TIMP3 (N-terminal TIMP-3 domain, AA 1-144) (other)
chain: B12 chain, part

Assays:
Assay in all cases: cell-based or functional assay
MMP2 [1] = biological target: T1, MMP2
MMP9 [2] = biological target: T2, MMP9 (human, UniProt P14780 107-457, limits assumed)
MMP2 (human) = MMP2 (human) (UniProt P08253)
MMP9 (human) = MMP9 (human) (UniProt P14780)
MMP2 [3] = biological target: T1, MMP2; remark: listed apart in the source
MMP9 [4] = biological target: T2, MMP9; remark: listed apart in the source
[5] = biological target: TNF alpha converting enzyme (TACE) (UniProt P78536)
MMP2 [6] = biological target: T1, MMP2; remark: listed apart in the source
MMP9 [7] = biological target: T2, MMP9; remark: listed apart in the source
MMP2 [8] = biological target: T1, MMP2; remark: listed apart in the source
MMP9 [9] = biological target: T2, MMP9; remark: listed apart in the source
[10] = biological target: TNF alpha converting enzyme (TACE) (UniProt P78536 215-671, limits assumed)
Chain of TNF alpha converting enzyme (TACE) (UniProt P78536 215-671, limits assumed) (P78536 215-671 limits assumed): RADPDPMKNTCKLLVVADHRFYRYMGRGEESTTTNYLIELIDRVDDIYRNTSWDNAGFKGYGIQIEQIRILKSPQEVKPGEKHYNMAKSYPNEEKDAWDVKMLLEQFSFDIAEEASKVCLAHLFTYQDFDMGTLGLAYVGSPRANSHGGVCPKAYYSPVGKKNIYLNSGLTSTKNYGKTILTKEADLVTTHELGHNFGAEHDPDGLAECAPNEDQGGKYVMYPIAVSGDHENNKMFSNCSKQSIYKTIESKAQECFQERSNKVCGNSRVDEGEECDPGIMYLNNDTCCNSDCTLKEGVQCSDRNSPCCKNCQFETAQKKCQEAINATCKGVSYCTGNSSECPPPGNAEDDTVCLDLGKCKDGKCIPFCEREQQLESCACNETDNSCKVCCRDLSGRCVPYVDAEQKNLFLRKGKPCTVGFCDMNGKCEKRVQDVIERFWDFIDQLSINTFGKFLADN

Chain of TNF alpha converting enzyme (TACE) (UniProt P78536) (P78536 215-671 limits assumed): as above
T2 sequence (P14780 107-457 limits assumed): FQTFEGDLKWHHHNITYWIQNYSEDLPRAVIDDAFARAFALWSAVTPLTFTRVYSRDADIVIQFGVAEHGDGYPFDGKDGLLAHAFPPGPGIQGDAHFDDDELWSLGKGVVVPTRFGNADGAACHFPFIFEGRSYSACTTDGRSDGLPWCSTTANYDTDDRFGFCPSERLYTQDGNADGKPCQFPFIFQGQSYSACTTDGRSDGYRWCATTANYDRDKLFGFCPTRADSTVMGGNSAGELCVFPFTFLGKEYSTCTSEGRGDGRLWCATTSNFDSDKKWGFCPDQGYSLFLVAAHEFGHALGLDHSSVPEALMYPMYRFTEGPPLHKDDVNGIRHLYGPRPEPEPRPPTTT
Chain of MMP9 (human) (P14780 107-457 limits assumed): as above

Molecule	shift in MMP2 inhibitory activity (fold decrease) as compared to wild-type (fold decrease vs wild-type) (MMP2 [3])	shift in MMP9 inhibitory activity (fold decrease) as compared to wild-type (fold decrease vs wild-type) (MMP9 [4])	further results
TIMP-3 [H78N, Q80T, K94N, E96T, D110N, K112T, R138T] (SEQ ID NO:26) fused to IgG (from UniProt P35625 24-211)			MMP2 EC50 (inhibition of MMP activity, FRET peptide substrate) (MMP2 [1]): 14 nM; MMP9 EC50 (inhibition of MMP activity, FRET peptide substrate) (MMP9 [2]): 26 nM
TIMP-3 [H78N, Q80T, K94N, E96T, D110N, K112T, R138T] (SEQ ID NO:26) fused to HSA (from UniProt P02768 25-609)			MMP2 EC50 (inhibition of MMP activity, FRET peptide substrate) (MMP2 (human)): 1.4 nM; MMP9 EC50 (inhibition of MMP activity, FRET peptide substrate) (MMP9 (human)): 5.1 nM
N-TIMP3 fused to HSA (from UniProt P02768 25-609)			MMP2 EC50 (inhibition of MMP activity, FRET peptide substrate) (MMP2 (human)): 38.7 nM; MMP9 EC50 (inhibition of MMP activity, FRET peptide substrate) (MMP9 (human)): 36.5 nM
B1	1	9	
B2	2	9	shift in TACE inhibitory activity (fold decrease) as compared to wild-type (fold decrease vs wild-type) [5]: 2
B3	3	74	
B4	2	19	
B5	3	10	shift in TACE inhibitory activity (fold decrease) as compared to wild-type (fold decrease vs wild-type) [5]: 0.6
B6	5	21	shift in TACE inhibitory activity (fold decrease) as compared to wild-type (fold decrease vs wild-type) [5]: 2
B7	2	15	
B8	2	22	
B9	2	20	
B10	2	59	
B11			MMP2 EC50 (inhibition of MMP activity, FRET peptide substrate) (MMP2 [3]): 13.3 nM; MMP9 EC50 (inhibition of MMP activity, FRET peptide substrate) (MMP9 [4]): 32.9 nM
B12			MMP2 EC50 (inhibition of MMP activity, FRET peptide substrate) (MMP2 [3]): 6.9 nM; MMP9 EC50 (inhibition of MMP activity, FRET peptide substrate) (MMP9 [4]): 1.6 nM
B13	2	38	
B14			MMP2 EC50 (inhibition of MMP activity, FRET peptide substrate) (MMP2 [6]): 1 nM; MMP9 EC50 (inhibition of MMP activity, FRET peptide substrate) (MMP9 [7]): 2.5 nM; shift in MMP2 inhibitory activity (fold decrease) as compared to wild-type (MMP2 [8]): 2 fold decrease vs wild-type; shift in MMP9 inhibitory activity (fold decrease) as compared to wild-type (MMP9 [9]): 6 fold decrease vs wild-type; shift in TACE inhibitory activity (fold decrease) as compared to wild-type [10]: 0.4 fold decrease vs wild-type
B15			MMP2 EC50 (inhibition of MMP activity, FRET peptide substrate) (MMP2 [6]): 7.6 nM; MMP9 EC50 (inhibition of MMP activity, FRET peptide substrate) (MMP9 [7]): 1.7 nM
